Measured values published in the nanobody polyreactivity screen of Harvey et al. (2022).

Test: yeast display, Sf9 membrane polyspecificity reagent, FACS + sequencing; frameworks hold sequencing errors
In short: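 Galactose induction of a Saccharomyces cerevisiae BJ5465 synthetic nanobody display library ran 36–48 hours. The cells were then stained for 1 hour at 4 °C with 10% biotinylated, detergent-solubilized Sf9 membrane reagent, pulled down on streptavidin microbeads and FACS-sorted into low and high (top ~1%) gates on expression and reagent-binding fluorescence. Labels for polyreactivity follow the gate of origin.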

| Sequence | polyreactivity (PSR sort gate) |
| --- | --- |
| KLQLVDSGGGLVQAGGSLRLSCAASGSTIRYYAMGWYRQAPGKERELVAAITISGGGTYADSVKGRFTISRDNAKNTVYLEMNSLKPEDTAVYYCAATYYGFLYRSIGDYWGQGTQVTVSS | low polyreactivity |
| KVQLQESGGGLVQAGGSLRPSCAASGSITDGVPMGWDRQAPGEERELVATTVLGATTNYADSVKGRFTISRGNAKNTVYLLMNSLKPEETAVYYCAAPLRYDKGFSYWRQGTQVTVSS | low polyreactivity |
| KVQLVESGGGIVQAGGSLRLSCAASGSTFVRNAMGWYRQAPGKERELVAGITFGGGSTYYADSVKGRFTISRDNAKNTVYLQMNSLKAEDTAVYFCAKRDYSPWPAAGYPYDYDYWGQGTQVTVSS | low polyreactivity |
| KVQLVESGGGLVQAGGSLRISCAASGSNFGRYAMGWYRQAPGKERELVAAISARGGSTYYADSVKGRFTISRDNAKNTVYLQMNSLKPEDTAFYYCNVLVRYSDQSSDSWGQGTQVTVSS | high polyreactivity |
| KVQLVESGGGLVQAGGSLRLSCAASGINCYYYAMGWYRQAPGKERELVAVISSSGGRTYYADSVKGRFTISRDNSKNTVYLQMNSLKPEDTAVYYCAARGYGATYDYWGQGTQVTVSS | high polyreactivity |
| KVQLVESGGGLVQAGGSLRLSCAASGITLSYYAMGWYSQAPGKEMELVAAINRGGRTYYADSVTGRFTISRDNAKNTVYLQMNSLKPEDTAVYYCATAYASSQKYYYWGQGTQVTVSS | high polyreactivity |
| KVQLVESGGGLVQAGGSLRLSCAASGRTFLRYAMGWYRQAPGKERELVAAISTSGGSTYYADSVKGRFTISRDNAKNTVYLQMNSLKPEDTAVYYCAATSTSYTYTHSYGYWGQGTQVTVSS | low polyreactivity |
| KVQLVESGGGLVQAGGSLRLSCAASGSIFTHNAMGWYRQAPGKERELVAAISSGGSTNYADSVKGRFTISRDNAKNTVYLQMNSLKPEDTAVYYCAKSIDGWYWRRRRYDYWGQGTQVTVSS | low polyreactivity |
| KVQLVESGGGLVQAGGSLRLSCAASGSIIGGYAMGWYRQAPGKVRELVAAINRSGGRTYYADSVKGRFTFSRDNAKNTVYLQMNSLKPEDTAVYYCAADNFRGKYDYLGQGTQVTVSS | high polyreactivity |
| KVQLVESGGGLVQAGGSLRLSCAASGSTFYYYAMGWNRQAPGKERELVAVITLSGGSTYYADSVKGRFTISRDNAKNTFYLQMNSLKPEDTAVFYCAAEHWEVWNSYYYEYDYWGQGTLVTVSS | high polyreactivity |
| KVQLVESGGGLVQAGGSLRVRCAASGFTFGVYAMGWYRQAPGKEREFVAVITWRGGRTYYADSVKGRFTISRDNAQNTVYLQMNSLKPEDTGVYYCNARPRIYLTLYYWGQGTQVSVSS | high polyreactivity |
| KVQLVESRGGLVQAGGSLRLSCAASGIIFYTYAMGWNRQAPGKERELVASISWDVDSTNYADSVKGRFTISRDNAKNTVYLQMNSLKPEYTAVYYCAVDYTFDSYWYWVDYYEYGYWGQGTQVTVSS | high polyreactivity |
| KVQLVETGGGLVQAGGSLRLSCAASGSILIYNAMGWYRQAPGKERELVAGISRRGASTYYADSVKGRFTNSRDNAKKTVYLQMKSLKPEDTAVYYCAALGKYIVAWSGDFWGQGTQVTVSS | low polyreactivity |
| LGQVVESGGGLVQAGGSLRLSCAASGRIFHRNTMGWYRQAPGKEWELVAAISGSTGRTYYADSVKGRFPISRDNAKTTVYLQMNSLKPEDTAVYYCAKVYRRSGSVARYDYGGQGTQVTVSS | high polyreactivity |
| LLMGWYRQAPGEERELVAGINDGASTNYADSVKGRFTISRDNARNTVYLKMNSLKPGDTAVYYCAVWQPVLIWFYYWGQGTQVTVSS | high polyreactivity |
| LVLLVESGGGLVQAGGSLRLSCAASGSSLDWYAMGWYRQAPGNVRELVASLSYSGGTTYYADSVTVRFTISRDNAKNTVYLQMISLKPDDTAVDYCATDLLNNVDYDYWGQGTQVTVSS | low polyreactivity |
| LVQLVESGGGLVQAGGSLRLICAASGSIFSGYAMGWYRQAPGNERELVAAITRSGGRTYYADSVKGRFTISRDNAKNTVYLQMNSLKPEDTAGYYCATLPRYYGYWGQGTQVTVSS | high polyreactivity |
| LVQLVESGGGLVQAGGSLRLSCAASGITLARNAMGWYRQAPGKEWELVAAITWSGGTTYYADSVKGRFTISRDNAKNTVYLQMNSLKPEDTAVYYCAASAKLHYYRTYRYNYWGQGTQVTVSS | high polyreactivity |
| LVQLVESGGGLVQAGGSLRLSCAASGSTFANNAMGWYRQAPGKERELVASITTDGSTNYADSVKGRFTISRDNAKNTVYLQMNSLKPEDTAVYYCAAAYQKSPITPKMDYWGQGTQVTVSS | low polyreactivity |
| LVQLVESGGGLVQAGGSLRLSCAASGSTFDYYAMGWYRQAPGQERELVAAISGSGDRTYYADSVKGRFTISRDNAKNTVYLQMNSLKPEDTAVYYCAKYGRTRFYYWGQGTQVTVSS | high polyreactivity |
| LVQLVESGGRLVQAGGSLRLSCAASGRTFPAYTMGWYRQSPGKERDLVAANYSSGGTTYYADSVKGRFTISRDNAKNTVYLQIYSINPEDNAVYYCNAYLGYYYYYLDALIGYDYWGQGTQVTVSS | low polyreactivity |
| PLQLVESGGGLVQAGGSLRLSCAASGIIFGRYTMGWYRQAPGKERELFAAITSSGITYYADSVNGRFTISRDNAKNTVYLQLNSLKPEDTAVYYCNADYSIPGYYWPYDYWGLGTQVTVSS | low polyreactivity |

| Sequence | polyreactivity (PSR sort gate) |
| --- | --- |
| PVQLQESGGGLVQAGGSLRLSCAESGNIFDADIMGWYRQAPGKERELVDCIADGGSTNYADSVKGSFTISRDNAKITVYLQMNSLKPEDTAVYYCAAIAYPDIPTCFDYDSDYFFRGQGTQVTVSS | low polyreactivity |
| PVQLVESGGGIVQAGGSLRLSCAASGSTFVGKAMGWSRQAPGKQREMFAAISRTGGSPYYADSVKGRFSISRDNAKNSVYLQMISLKPEDTAVYYCAEVYGGPYGELDYWGHGTQVTVSS | high polyreactivity |
| PVQLVESGGGLVQAGASLRLSCAASGNTFIENAKGSYRQAPGKERELVADIDTGGSTYYADSVKGRFTISRDNAKNTVYLQMNRLKPEDTADYYCTAVGLYLYRYKFGYLGKIGPGYDYWGQGTQVTVSS | low polyreactivity |
| PVQLVESGGGLVQAGGILRLSCAACGRIFQRNAMGWYRQAPGKERELVATITSRGGSTYYADSVKGRFTISRDNAKNTVYLQMNSLKPEDTAVYYCAADPRRYRGFGYVYGGFYYWGQGTQVTVSS | low polyreactivity |
| PVQLVESGGGLVQAGGRLRLSCAASGIIFSDYAMGWYRQAPGKERELVAAIPGGGSTYYADSVKGRFTISRDNAKNTVYLQMNSLKPEDTAVYYCNADWARLWIRSTEVDYWGQGTQVTVSS | low polyreactivity |
| PVQLVESGGGLVQAGGSHRVICAASGRIFYVDAMGWSTQAPGKERELVADMSRGGSTNYADSVKGRFTISRDNAKKTVYLQMNRLKPEDTSVYYCNTDGLWSAEYDYWGQGTQVTVSS | low polyreactivity |
| PVQLVESGGGLVQAGGSLLLSCAASGRTFIYYAMGWYRQAPGKERELVAGISRHGGRTYYADSVKGRFTISRDNAKNTVYLQMNSLKPEDTAVYYCNAYPPSGHDYWGQGTQVTVSS | high polyreactivity |
| PVQLVESGGGLVQAGGSLRLICAASALTFPPYSMGWYRQAPAKERELVAAISRNAGNTYYADSVKGRFTISRDTAKNTVYLQMNSLKPEDTAVYYCAAKRGTQGMYYWGQGTQVTVSS | high polyreactivity |
| PVQLVESGGGLVQAGGSLRLSCAASGSIFCYYTMGWYRQAPGKERELVASIDYSGVSTYYADSVKGRFTISRDNAKNTVYLQMNSLKPEDTAVYDCNAVYYSWDGSTWEYGYWGQGTQVTVSS | low polyreactivity |
| PVQLVESGGGLVQAGGSLRLSCAASGSIFDLNAMGWYRQAPGKERELVAAISSGGGTYYADSVKGRFTISLDNAKNTVYLQMNSLKPEDTAVYSCNRVTRGSYNYWGQGTQVTVSS | high polyreactivity |
| PVQLVESGGGLVQAGGSLRLSCAASGSTFRRNVMGWYRQAPGKEREFVAAISYRTGSTYYADSVKGRFTISRDNAKNTVYLQMNSLKPEDTAVYYCAASSQWVGYYYWGQGTQVTVSS | high polyreactivity |
| PVQLVESGGGLVQAGGSLRLSCAASGSTFTSNAMGWYRQAPGKERELVAAIDRNGGRTYYADSVNGRFTISRDNAKNTVYLQMNSMKPEDTEVYYCAVLSKYRRTFGSWGQGTLVTVSS | high polyreactivity |
| PVQLVESGGGLVQAGGSLRLSCAGSGFTFYTNTMGWYIQAPGKERELVAAISSGGSTYADSVKVRYTISRDNAKNTVDLQMNSLKPEDTAVYYCARDFYYSLSGFDYWGQGTQVTVSS | low polyreactivity |
| PVQLVESGGGLVQAGGSLRLSWAASGRIFVVNAMGWYRQAPGKEREFLASITRGASTYADSVKGRFTISRDNAKNTVYLQMNSLKPEDTAVYYCSDAKRPQVVRYDWTKLEYWGQGTQVTVSS | high polyreactivity |
| PVQLVESGGVLVQAGGSLRLSCAASGITFWDKAMGWYRQPPGKERELVAAITSGNTDYADSVKGRFTISRDNAKNSVYLPMTSLIPEDTAVYYCGAELLVGGGVTVDYWGQGTQVTVSS | low polyreactivity |
| QAELVESGGGLVQAGGSLRLSCAASGLTFRAYAMGWYRQAPGKERELVAAISWNGGSTYYADSVKGRFTISRDNAKNTVYLQMNSLKPEDTAVYYCNAYDYQYFYGYEYDYWGQGTQVTVSS | high polyreactivity |
| QAQLKESGGSLVQAGGGLRLSCAASGYNSVGSVMGWYRQAPSKERELVASIDQGANTNYADSVKGRFTISRDNAKNNVYLQMNSLKPEDTAVYYCATETTYFLNYWGQGTQVTVSS | low polyreactivity |
| QAQLQESGGSLVQAGGGLRLSCAASGYISVGSVMGWYRQAPSKERELVASIDQGANTNYADSVKGRFTISRDNAKNYVYLQMNSLKPEDTAVYYCATETTYILNYWGQGTQVTVSS | low polyreactivity |
| QAQLQESGGSLVQAGGGLRLSCAASGYISVGSVMGWYRQAPSKERELVASIDQGANTNYADSVKGRFTISRNNAKNNVYLQMNSLKTEDTAVYYCATETTYILNYCGQGTQVTVSS | low polyreactivity |
| QAQLVESGGGLVQAGGSLRLSCAASGRTFYYYTMGWYRQAPGKERELVAAISYSGGSTSYADSVKGRFTISRDNAKNTVYLQMNSLKPEDTAVYYCNARYKYYTQRRYHYDYWGQGTQVTVSS | high polyreactivity |
| QAQLVESGGGLVQAGGSLRLSCAASGRTLAWYALGWYRQAPGKERELVADISSGGSTYYADSVKGRFTISRDNAKHTVYVQMNSLKPEDTAVYYCAARWRSWRYKDDYWGQGTQVTVSS | high polyreactivity |
